The Human Domainome abundance scans (Beltran et al. 2025)

B1: Double-stranded RNA-specific adenosine deaminase, residues 296 to 358; numbered along this chain, P55265 (parent)
chain: MAEIKEKICDYLFNVSDSSALNLAKNIGLTKARDINAVLIDMERQGDVYRQGTTPPIWHLTDK
B2: COUP transcription factor 1, residues 83 to 159; numbered along this chain, P10589 (parent)
chain: HIECVVCGDKSSGKHYGQFTCEGCKSFFKRSVRRNLTYTCRANRNCPIDQHHRNQCQYCRLKKCLKVGMRREAVQRG

Variants of: B1
Experiment: abundance fitness (aPCA) (normalised: wild type 0, dead -1); higher = more abundant; growth selection in yeast, the domain comes from the species named
Conditions: Homo sapiens

Abundance fitness of substitutions, site by site:
P56: T -0.013; V -0.099; Y -0.693; L -0.656; I -0.263; R -0.686; Q -0.541; M -1.28; F -1.13; W -0.818

Variants of: B2
Experiment: as above
Conditions: Homo sapiens

Abundance fitness: each site, then its substitutions
I2: E -0.379; D 0.065; Q -0.714; R -0.413; G -0.927; M -0.078; C -0.186; N 0.05; K -0.329; A -0.829; W -0.502; Y 0.237; V -0.648
D9: H -0.636; S -0.02; G -0.057; P -0.863; A -0.128; T -0.047; R -0.018; L -0.234; W -0.14; M 0.065; I -0.203; Q 0.104; Y -0.381; V -0.304; C -0.625; K -0.083; F -0.045; N -0.099
V6: Q -0.802; L -0.889; P -0.705; Y -0.439; D -0.736; G -0.807; I -0.074; S -0.819; A -0.458; K -1.09; T -0.743; W -0.545; M -1.06; F -0.581; R -0.974; E -0.836
C4: W -0.965; M -0.521; T -0.635; P -0.833; Y -0.9; D -0.724; Q -1.25; H -1.23; I -0.998; A -1.04; N -1.17; F -0.939; V -0.672; L -1.05; G -0.731; K -0.775; S -0.515
K10: H -0.288; A -0.332; M -0.067; P 0.051; Q 0.022; S -0.153; E -0.104; L -0.313; D 0.16; G -0.114; C -0.105; R -0.214; T 0.056; F -0.029
H1: D 0.6; E -0.007; R 0.013; C -0.258; Q 0.121; L 0.03; A -0.078; S -0.33; V -0.035; G 0.277; Y 0.262; K 0.374; N 0.07; T 0.074
E3: K -0.226; V -0.536; S -0.052; F -0.173; N -0.222; P -0.279; T -0.058; R -0.408; G -0.402; M -0.07; W -0.319; C -0.072; H -0.15; I -0.108; D 0.006; A -0.01
G8: N -0.045; D 0.177; L 0.042; M -0.078; W -0.218; T -0.237; S 0.077; K 0.165; R 0.014; Q 0.146; C -0.182; A 0.016; V -0.791; H -0.22
V5: I 0.314; A 0.228; Q 0.252; D -0.081; E -0.042; N 0.152; S 0.149; R 0.295; H 0.185; L 0.192; F 0.199; Y 0.393; W 0.003; K 0.31; C -0.027; P 0.381; G 0.012; T 0.104
C7: F -0.942; E -0.659; Y -0.268; I -0.912; R -0.802; T -0.95; N -0.562; L -0.843; A -0.692; V -0.597; M -0.84; D -0.867; S -0.803; P -1.17; W -0.821; K -0.509; G -0.733
